Data set [1] concerns the molecule itself. The data set can be described thus: cross-linking; purified proteins (15 µM) incubated alone or together for 60 min at 25 °C with 10 mM dimethyl suberimidate (DMS), no ATP; SDS 4-20% gradient PAGE, Coomassie.
The target in data set [2] is T1, ApbC-(His)6, purified recombinant (Helicobacter pylori strain 26695, UniProt O24999 1-368).
T1 construct: H. pylori strain 26695 ApbC/HP0207, whole native hp0207 (apbC) ORF without its stop codon, cloned NdeI-XhoI in pET21b (pET-ApbC); predicted mass with tag 41.1 kDa; The name ApbC-(His)6 and the cloning without stop codon in pET21b put the tag at the C-terminus; the methods of the cross-linking call the protein 'native ApbC'; also called hexahistidine tagged-ApbC^WT; source: E. coli BL21 RIL, …
T1 sequence (looked up): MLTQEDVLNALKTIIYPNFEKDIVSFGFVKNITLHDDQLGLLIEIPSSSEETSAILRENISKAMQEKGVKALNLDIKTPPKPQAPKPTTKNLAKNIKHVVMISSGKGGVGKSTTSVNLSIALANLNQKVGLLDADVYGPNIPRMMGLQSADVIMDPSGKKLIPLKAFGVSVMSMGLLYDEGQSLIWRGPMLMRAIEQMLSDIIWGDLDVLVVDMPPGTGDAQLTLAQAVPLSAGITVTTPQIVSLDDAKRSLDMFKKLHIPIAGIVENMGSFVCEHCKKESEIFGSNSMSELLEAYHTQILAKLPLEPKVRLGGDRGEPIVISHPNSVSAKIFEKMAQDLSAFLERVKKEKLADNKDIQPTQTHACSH
The description is as above. The following applies: both partners purified.

What is called stoichiometry N is the number of molecules, sites or subunits per partner or assembly.

B1: Nfu (HP1492), purified recombinant (natural protein, Helicobacter pylori, UniProt O26025 1-89, looked up)
chain: MIEFSDEDLQKPVRIVIEKIRPYLLKDGGNIEVLGVKSMKIYVALEGACKTCSSSKITLKNVIERQLKMDIHPNLEVVCLENAKEFDKL
notes: H. pylori Nfu/HP1492; also called recombinant Nfu; HpNfu
For B1, in data set [1], the “stoichiometry N” value was found to be 2. Also, in data set [2], the binding result is given as “binds”.
